Assay [1] concerns the target T1, human LRRC33-proTGFβ1 complex (human, UniProt Q86YC3 19-650; P01137 30-390).
T1 construct: also called hLRRC33-proTGFβ1; hLRRC33
Description: MSD-SET solution equilibrium titration; Ab6 titrated against biotinylated hLRRC33-proTGFβ1, readout % free antigen. The method, then:
(§1) MSD-SET assays were performed to measure affinities of the antibodies at equilibrium. Briefly, each test antibody was diluted 3-5 fold and samples were mixed with biotinylated antigen in a 48-well dish. The SET samples were equilibrated for 20-24 hours at room temperature. Meanwhile, a capture plate was coated with IgG (20 nM) and incubated overnight at 4° C. or 30 minutes at room temperature, followed by a blocking step with 5% BSA. After the capture plate was washed three times, SET samples were added and incubated for 150 seconds. The plate was washed once to remove unbound complexes. 250 ng/ml SA-Sulfotag was added then washed 3 times. 2× Read Buffer was added, and signals from the labeled bound complexes were read with the use of QuickPlex™ SQ 120 instrument.
(§2) As an example, MSD standard plates (MSD) were coated with a 20 nM solution of monoclonal antibody in PBS for 30 min at room temperature or overnight at 4° C. […] After 20-24 hours of equilibration, the antibody-coated plate was blocked with Blocking Buffer A (MSD) for 30 minutes at room temperature and washed with wash buffer (PBS, 0.1% BSA, 0.05% Tween-20) before adding the equilibrated antibody-antigen complexes to the plate for exactly 2.5 minutes. […] After washing with wash buffer, plates were read in MSD read buffer (MSD) using the MESO QuickPlex SQ 120 (MSD). […]

Assay [2] has as its target T1, human LRRC33-proTGFβ1 complex. Description: MSD-SET, solution equilibrium titration. How it is done: as §1
Assay [3] addresses T2, human LTBP3-proTGFβ1 complex (human, UniProt Q9NS15 866-1039).
T2 construct: range 866-1039; also called hLTBP3-proTGFβ1; hLTBP3
Put plainly: MSD-SET, solution equilibrium titration. How it is done:
as §1

Assay [4] addresses T3, human GARP-proTGFβ1 complex (human, UniProt Q14392 20-627; P01137 30-390).
T3 construct: also called hGARP-proTGFβ1; hGARP
Put plainly: MSD-SET, solution equilibrium titration. The method, then: as §1

Assay [5] addresses T4, human LTBP1-proTGFβ1 complex (human, UniProt Q14766 873-1507).
T4 construct: range 873-1507; biotinylated in Octet and MSD-SET; also called hLTBP1-proTGFβ1; hLTBP1
Description: MSD-SET, solution equilibrium titration. How it is done:
as §1

For assay [6], the target named is T4, human LTBP1-proTGFβ1 complex. Put plainly: MSD-SET solution equilibrium titration; Ab6 titrated against biotinylated hLTBP1-proTGFβ1, readout % free antigen. The method, then:
as §1, §2

The target of assay [7] is T5, murine LTBP3-proTGFβ1 complex (mouse, UniProt Q61810 41-1245; P04202 30-390, limits assumed).
T5 construct: also called mLTBP3-proTGFβ1
Description: MSD-SET, solution equilibrium titration; MSD-SET, Table 21, mouse complex.

Assay [8] has as its target T1, human LRRC33-proTGFβ1 complex. Description: BLI (Octet).
Assay [9] concerns the target T6, human mature TGFβ3 growth factor (human, UniProt P10600 301-412).
T6 construct: mature
T6 sequence (looked up): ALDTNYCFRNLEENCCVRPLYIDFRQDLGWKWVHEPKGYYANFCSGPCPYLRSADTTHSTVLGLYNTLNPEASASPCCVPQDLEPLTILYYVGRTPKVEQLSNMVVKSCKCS
Description: in vitro binding assay (BLI protocol at p-1008). How it is done:
(§3) AR2G biosensors were first allowed to hydrate in water offline for at least 10 minutes before initiation of the experiment. Upon initiation of the experiment, AR2G tips were equilibrated in water for 1 minute. Then, the tips were moved into a freshly prepared activation solution (18 parts water, 1 part 400 mM EDC (1-Ethyl-3-[3-dimethylaminopropyl] carbodiimide hydrochloride), and 1 part 200 mM sulfo-NHS (N-hydroxysulfosuccinimide)) for 5 minutes. Recombinant TGFβ protein (10 ug/mL in 10 mM sodium acetate buffer pH 5) was coupled to the activated tips for 3 minutes before quenching with ethanolamine pH 8.5 for 15 minutes. […] Finally, a ten minute dissociation was performed.

The target of assay [10] is T7, human mature TGFβ2 growth factor (human, UniProt P61812 303-414).
T7 construct: mature
T7 sequence (looked up): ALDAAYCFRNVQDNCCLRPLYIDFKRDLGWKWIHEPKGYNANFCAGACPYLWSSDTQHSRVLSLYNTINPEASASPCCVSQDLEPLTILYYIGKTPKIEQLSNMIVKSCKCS
Put plainly: in vitro binding assay (BLI protocol at p-1008). How it is done:
as §3

The target of assay [11] is hLRRC33-proTGFβ1 complex on cells (human, UniProt Q86YC3 19-692; P01137 30-390). Put plainly: cell-based or functional assay.
The target of assay [12] is hLTBP3-proTGFβ1 complex made by transfected cells (cell-based potency assay) (human, UniProt Q9NS15 44-1303; P01137 30-390). Put plainly: cell-based or functional assay.
Assay [13] deals with hLTBP1-proTGFβ1 complex made by transfected cells (cell-based potency assay) (human, UniProt Q14766 347-1721; P01137 30-390). Put plainly: cell-based or functional assay.
Assay [14] has as its target hGARP-proTGFβ1 complex on cells (human, UniProt Q14392 20-662; P01137 30-390). Put plainly: cell-based or functional assay.
The target of assay [15] is T8, human mature TGFβ1 growth factor (human, UniProt P01137 279-390).
T8 construct: Bought from R&D Systems; also called active (mature) TGFβ1 growth factor; free TGFβ1 growth factor
Put plainly: in vitro binding assay.

In the next assay the target is T9, human proTGFβ1 C4S (human, UniProt P01137 30-390).
T9 construct: Small latent complex without presenting molecule; the cysteine that links to presenting molecules is changed to serine; also called small latent complex proTGFβ1 C4S; latent TGFβ1
T9 sequence (P01137 other isoform, or with tags, fused parts or gaps): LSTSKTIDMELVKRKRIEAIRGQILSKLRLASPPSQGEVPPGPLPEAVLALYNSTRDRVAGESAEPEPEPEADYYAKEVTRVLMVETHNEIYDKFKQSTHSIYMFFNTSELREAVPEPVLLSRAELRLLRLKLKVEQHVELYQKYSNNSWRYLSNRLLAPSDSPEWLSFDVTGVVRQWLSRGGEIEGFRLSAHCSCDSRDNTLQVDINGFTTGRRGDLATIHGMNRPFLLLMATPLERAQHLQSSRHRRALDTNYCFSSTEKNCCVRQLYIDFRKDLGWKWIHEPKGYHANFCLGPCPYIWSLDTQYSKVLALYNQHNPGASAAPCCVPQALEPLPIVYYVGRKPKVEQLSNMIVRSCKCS
Description: method not described.

For assay [16], the target named is T2, human LTBP3-proTGFβ1 complex. Description: MSD-SET solution equilibrium titration; Ab6 titrated against biotinylated hLTBP3-proTGFβ1, readout % free antigen. How it is done: as §1, §2

T1 sequence (Q86YC3 other isoform, or with tags, fused parts or gaps limits assumed, chain 1 of 2): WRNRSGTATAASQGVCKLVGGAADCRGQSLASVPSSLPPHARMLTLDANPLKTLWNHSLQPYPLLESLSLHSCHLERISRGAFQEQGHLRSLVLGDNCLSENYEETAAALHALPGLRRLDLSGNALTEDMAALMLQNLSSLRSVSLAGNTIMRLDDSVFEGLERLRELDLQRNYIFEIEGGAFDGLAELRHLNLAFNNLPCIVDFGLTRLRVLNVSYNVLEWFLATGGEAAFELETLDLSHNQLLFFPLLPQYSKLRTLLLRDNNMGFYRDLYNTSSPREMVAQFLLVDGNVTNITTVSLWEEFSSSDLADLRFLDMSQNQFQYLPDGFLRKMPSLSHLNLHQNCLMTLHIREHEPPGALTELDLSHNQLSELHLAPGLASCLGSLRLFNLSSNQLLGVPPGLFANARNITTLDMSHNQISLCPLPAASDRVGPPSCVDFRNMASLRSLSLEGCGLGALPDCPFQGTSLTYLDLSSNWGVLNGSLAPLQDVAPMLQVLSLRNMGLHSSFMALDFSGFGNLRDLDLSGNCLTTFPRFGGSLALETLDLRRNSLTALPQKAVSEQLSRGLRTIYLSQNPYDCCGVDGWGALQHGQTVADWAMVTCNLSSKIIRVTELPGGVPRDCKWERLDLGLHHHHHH
T1 sequence (P01137 30-390 limits assumed, chain 2 of 2): as the sequence (P01137 other isoform, or with tags, fused parts or gaps) above, with S4C counted along it
T2 sequence (Q9NS15 866-1039 limits assumed, chain 1 of 2): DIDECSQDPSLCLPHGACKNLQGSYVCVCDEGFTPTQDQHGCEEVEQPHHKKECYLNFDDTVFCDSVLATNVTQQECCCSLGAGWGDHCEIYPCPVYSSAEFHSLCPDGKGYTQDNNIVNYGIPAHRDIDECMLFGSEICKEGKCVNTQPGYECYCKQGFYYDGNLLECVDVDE
T2 sequence (chain, as listed by the source limits assumed, chain 2 of 2): as the sequence (P01137 other isoform, or with tags, fused parts or gaps) above, with S4C counted along it
T4 sequence (Q14766 873-1507 limits assumed, chain 1 of 2): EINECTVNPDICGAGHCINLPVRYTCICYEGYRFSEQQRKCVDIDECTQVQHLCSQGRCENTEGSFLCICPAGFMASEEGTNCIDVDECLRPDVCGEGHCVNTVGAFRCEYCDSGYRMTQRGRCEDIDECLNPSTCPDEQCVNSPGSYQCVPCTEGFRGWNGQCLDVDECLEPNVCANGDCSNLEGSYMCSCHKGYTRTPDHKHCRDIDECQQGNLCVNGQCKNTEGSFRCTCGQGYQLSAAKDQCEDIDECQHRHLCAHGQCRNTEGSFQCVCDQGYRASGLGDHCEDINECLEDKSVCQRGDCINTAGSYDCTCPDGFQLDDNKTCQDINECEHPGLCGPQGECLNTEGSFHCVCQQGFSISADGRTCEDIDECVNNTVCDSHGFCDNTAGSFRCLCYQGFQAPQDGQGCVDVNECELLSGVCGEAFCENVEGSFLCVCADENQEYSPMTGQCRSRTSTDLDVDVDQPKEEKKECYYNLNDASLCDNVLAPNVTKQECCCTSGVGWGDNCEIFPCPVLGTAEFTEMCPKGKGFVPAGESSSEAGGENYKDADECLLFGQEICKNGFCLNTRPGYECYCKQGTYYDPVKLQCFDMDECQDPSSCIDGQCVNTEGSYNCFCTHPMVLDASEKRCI
T4 sequence (chain, as listed by the source limits assumed, chain 2 of 2): as the sequence (P01137 other isoform, or with tags, fused parts or gaps) above, with S4C counted along it
Chain of hGARP-proTGFβ1 complex on cells (Q14392 20-662 limits assumed, chain 1 of 2): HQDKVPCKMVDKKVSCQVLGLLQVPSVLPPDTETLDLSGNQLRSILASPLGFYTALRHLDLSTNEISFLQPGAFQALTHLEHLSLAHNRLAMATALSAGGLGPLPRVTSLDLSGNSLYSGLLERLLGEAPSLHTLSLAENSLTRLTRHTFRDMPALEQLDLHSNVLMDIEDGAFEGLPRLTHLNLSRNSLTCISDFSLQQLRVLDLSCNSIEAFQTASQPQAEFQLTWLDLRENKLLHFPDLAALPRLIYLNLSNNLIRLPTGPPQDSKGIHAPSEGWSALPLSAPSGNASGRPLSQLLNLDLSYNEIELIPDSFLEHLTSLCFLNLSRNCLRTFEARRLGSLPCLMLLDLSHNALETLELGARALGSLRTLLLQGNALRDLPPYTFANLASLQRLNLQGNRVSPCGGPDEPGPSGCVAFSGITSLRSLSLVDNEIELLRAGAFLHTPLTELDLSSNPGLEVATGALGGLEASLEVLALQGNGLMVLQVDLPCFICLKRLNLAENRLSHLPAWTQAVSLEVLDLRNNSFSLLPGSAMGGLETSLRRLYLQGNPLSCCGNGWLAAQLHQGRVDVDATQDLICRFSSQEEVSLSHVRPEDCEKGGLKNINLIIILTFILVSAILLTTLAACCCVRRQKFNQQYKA
Chain of hGARP-proTGFβ1 complex on cells (P01137 30-390 limits assumed, chain 2 of 2): as the sequence (P01137 other isoform, or with tags, fused parts or gaps) above, with S4C counted along it
T3 sequence (Q14392 20-627, chain 1 of 2): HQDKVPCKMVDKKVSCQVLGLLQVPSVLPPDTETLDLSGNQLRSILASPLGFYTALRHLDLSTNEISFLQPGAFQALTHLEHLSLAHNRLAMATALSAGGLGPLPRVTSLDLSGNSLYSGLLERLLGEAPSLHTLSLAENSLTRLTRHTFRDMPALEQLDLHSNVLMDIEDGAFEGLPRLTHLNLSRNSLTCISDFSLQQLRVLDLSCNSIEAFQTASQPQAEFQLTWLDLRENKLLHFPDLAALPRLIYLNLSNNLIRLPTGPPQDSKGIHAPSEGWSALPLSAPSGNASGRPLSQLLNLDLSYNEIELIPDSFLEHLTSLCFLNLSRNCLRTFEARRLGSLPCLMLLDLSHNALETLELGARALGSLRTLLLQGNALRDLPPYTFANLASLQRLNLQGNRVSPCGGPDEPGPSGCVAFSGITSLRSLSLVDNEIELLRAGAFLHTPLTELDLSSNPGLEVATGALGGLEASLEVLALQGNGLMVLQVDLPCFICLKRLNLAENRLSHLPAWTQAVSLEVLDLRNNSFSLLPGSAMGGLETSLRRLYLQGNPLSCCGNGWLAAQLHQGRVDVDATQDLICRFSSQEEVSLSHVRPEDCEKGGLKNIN
T3 sequence (P01137 30-390, chain 2 of 2): as the sequence (P01137 other isoform, or with tags, fused parts or gaps) above, with S4C counted along it

B1: Ab6 (antibody, human IgG4 S228P, kappa, V domains shown)
VH: EVQLVESGGGLVQPGGSLRLSCTASGFTFSSFSMDWVRQAPGKGLEWVSYISPSADTIYYADSVKGRFTISRDNAKNTLYLQMNSLRAEDTAVYYCARGVLDYGDMLMPWGQGTLVTVSS
VL: DIQMTQSPSSLSASVGDRVTITCQASQDITNYLNWYQQKPGKAPKLLIYDASNLETGVPSRFSGSGSGTDFTFTISSLQPEDIATYYCQQADNHPPWTFGGGTKVEIKR
On to B1, for which the “IC50 (read off the curve)” value in [1] is around 0.07 nM; in assay [6], around 0.02 nM; in assay [16], around 0.03 nM. The Kd worked out at 0.063 nM in assay [2]; 0.029 nM in [3]; 0.027 nM in assay [4]; 0.018 nM in assay [5]; 0.022 nM in assay [7]; 0.336 nM in assay [8]. Moreover, the binding result in [9] is on record as “no binding”; in [10], “no binding”; in [15] it was “no binding”; with human proTGFβ1 C4S, “binds”. For the same molecule, the “IC50, reporter cell assay of TGFβ1 activation” value in [11] was determined as 0.495 nM; in assay [12], 0.821 nM; in [13] it was 2.74 nM; in [14] it was 0.324 nM.

These data come from US20220064275A1 (SCHOLAR ROCK, published 2022).
